This passage reports depletion of EGFRt-expressing lymphocytes after 3 days in vitro (flow cytometry), 5 nM and 1 nM and reduction of eEGFRt+ cells after in vitro treatment (flow cytometry) results from patent publication US20230174622A1.

The target of the assay is eEGFRt (modified EGFRt on edited T cells; variant not specified) (human). Kind of assay: cell-based or functional assay.

“αEGFR-SAP immunotoxin (biotinylated Cetuximab antibody combined with streptavidin-SAP conjugate, 1:1 molar ratio)” registered a depletion of EGFRt-expressing lymphocytes after 3 days in vitro (flow cytometry), 5 nM and 1 nM of 50%; a reduction of eEGFRt+ cells after in vitro treatment (flow cytometry) of 1.8 fold.
